The source of these data is US7897569B2, “Use of HMGB fragments as anti-inflammatory agents” (The Feinstein Institute for Medical Research, priority 2001, dated 2011).

For data set [1], the target named is T1, human Toll-like receptor 4 (TLR4) (Homo sapiens, UniProt O00206).
T1 construct: expressed in transfected cells; host or cells: CHO (CHO/TLR4, ELAM-CD25 reporter)
Description: CD25 expression in CHO/TLR2 and CHO/TLR4 ELAM-CD25 reporter cells (flow cytometry). It is filed as cell-based. The note with it: CHO/TLR4 cells versus CHO/TLR2; HMG-1 100 ng/ml or B box 10 μg/ml, 18 hours. The protocol: The effect of HMGB1 or HMGB1 B box on NF-kB activation was also examined. CHO reporter cell lines that constitutively express human Toll-like receptor 2 (TLR2) or Toll-like receptor 4 (TLR4) have been previously described (Means et al., J. Immunology, 163:3920-3927, 1999). These reporter lines also contain a stably transfected ELAM-CD25 reporter gene, and express human CD25 on their surface as a consequence of NF-kB activation. CHO/TLR2 and CHO/TLR4 cells were stimulated with IL-1 (10 ng/ml), purified full-length HMG-1 (100 ng/ml), or purified B box (10 μg/ml) for 18 hours. Following stimulation, cells were stained with a PE-labeled anti-CD25 monoclonal antibody and surface expression of CD25 was measured by flow cytometry. The results of this study are shown ib FIG. 11C. Data are expressed as the ratio (fold-activation) of the percent of CD25^+ cells in unstimulated and stimulated cell populations that were gated to exclude the lowest 5% of cells based on mean FL1 fluorescence.

In data set [2] the test system is NF-kB-dependent ELAM promoter. The experiment in a line: NF-kB-dependent ELAM promoter luciferase reporter in RAW 264.7 macrophages. The class given is cell-based, murine. To be noted: HMGB1 100 ng/ml or B box 10 μg/ml, 5 hours; for level of luciferase stimulation: co-transfected with MyD 88 dominant negative. The protocol:
To examine the effects of HMGB1 or HMGB1 B Box on the NF-kB-dependent ELAM promoter, the following experiment was carried out. RAW 264.7 macrophages were transiently co-transfected with an expression plasmid encoding a murine MyD 88-dominant-negative (DN) mutant (corresponding to amino acids 146-296), or empty vector, plus a luciferase reporter plasmid under the control of the NF-kB-dependent ELAM promoter, as described by Means et al. (J. Immunol. 166:4074-4082, 2001). A portion of the cells were then stimulated with full-length HMBG1 (100 ng/ml), or purified HMGB1 B box (10 μg/ml), for 5 hours. Cells were then harvested and luciferase activity was measured, using standard methods. All transfections were performed in triplicate, repeated at least three times, and a single representative experiment is shown in FIG. 11B.
On the technique in general: Reporter assays use an easily measured gene product as a stand-in for the process of interest.

The test system of another data set is RAW 264.7 cells. Description: 125I-HMGB1 cell surface binding to RAW 264.7 cells. On the set-up: species or system murine. To be noted: 4° C. As to the method:
Purified HMGB1 protein (10 μg) was radiolabeled with 0.2 mCi of carrier-free ^125I (NEN Life Science products Inc., Boston, Mass.) using Iodo-beads (Pierce, Rockford, Ill.) according to the manufacturer's instructions. ^125I-HMGB1 protein was separated from un-reacted ^125I by gel chromatography columns (P6 Micro Bio-Spin Chromatography Columns, Bio-Rad Laboratories, Hercules, Calif.) previously equilibrated with 300 mM sodium chloride, 17.5 mM sodium citrate, pH 7.0 and 0.1% bovine serum albumin (BSA). The specific activity of the eluted HMGB1 was about 2.8×10^6 cpm/μg protein. […] The radioactivity in the lysate was then measured using a gamma counter. Specific binding was determined as total binding minus the radioactivity obtained in the presence of an excess amount of unlabeled HMGB1 or A box proteins.
To determine whether the HMGB1 A box acts as an antagonist by displacing HMGB1 binding, ^125I-labeled-HMGB1 was added to macrophage cultures and binding was measured at 4° C. after 2 hours. […] The specificity of binding was assessed as described in Example 1.
In addition, ^125I-HMG-1 binding was measured in RAW 264.7 cells plated on 24-well dishes and incubated with ^125I HMGB1 alone or in the presence of unlabeled HMGB1 or A box. […] The data are expressed as the percent of total counts obtained in the absence of unlabeled HMGB1 proteins (2,382,179 CPM/well).

For another data set, the system named is C3H/HeJ mice. Description: Lethality and histology in C3H/HeJ mice. It is filed as in vivo.
The test system of another data set is HMGB1. The experiment in a line: A box inhibition of HMGB1 induced TNF release from RAW 264.7 cells (L929 assay). The note with it: HMGB1 1 μg/ml, A box 0-25 μg/ml, 16 hours. The class given is cell-based. The protocol: Weak agonists are by definition antagonists. […] This study was carried out as follows. Sub-confluent RAW 264.7 cells in 24-well dishes were treated with HMGB1 (1 μg/ml) and 0, 5, 10, or 25 μg/ml of A box for 16 hours in Opti-MEM I medium in the presence of polymyxin B (100 units/ml). The TNF-stimulating activity (assayed using the L929 cytotoxicity assay described herein) in the sample receiving no A box was expressed as 100%, and the inhibition by A box was expressed as percent of HMGB1 alone. […] Data in FIG. 4A are presented as mean±SD (n=2-3 independent experiments).

Where [3] appears, read: C3H/HeJ mice, 8 hours after administration.

T1 sequence (O00206 24-839): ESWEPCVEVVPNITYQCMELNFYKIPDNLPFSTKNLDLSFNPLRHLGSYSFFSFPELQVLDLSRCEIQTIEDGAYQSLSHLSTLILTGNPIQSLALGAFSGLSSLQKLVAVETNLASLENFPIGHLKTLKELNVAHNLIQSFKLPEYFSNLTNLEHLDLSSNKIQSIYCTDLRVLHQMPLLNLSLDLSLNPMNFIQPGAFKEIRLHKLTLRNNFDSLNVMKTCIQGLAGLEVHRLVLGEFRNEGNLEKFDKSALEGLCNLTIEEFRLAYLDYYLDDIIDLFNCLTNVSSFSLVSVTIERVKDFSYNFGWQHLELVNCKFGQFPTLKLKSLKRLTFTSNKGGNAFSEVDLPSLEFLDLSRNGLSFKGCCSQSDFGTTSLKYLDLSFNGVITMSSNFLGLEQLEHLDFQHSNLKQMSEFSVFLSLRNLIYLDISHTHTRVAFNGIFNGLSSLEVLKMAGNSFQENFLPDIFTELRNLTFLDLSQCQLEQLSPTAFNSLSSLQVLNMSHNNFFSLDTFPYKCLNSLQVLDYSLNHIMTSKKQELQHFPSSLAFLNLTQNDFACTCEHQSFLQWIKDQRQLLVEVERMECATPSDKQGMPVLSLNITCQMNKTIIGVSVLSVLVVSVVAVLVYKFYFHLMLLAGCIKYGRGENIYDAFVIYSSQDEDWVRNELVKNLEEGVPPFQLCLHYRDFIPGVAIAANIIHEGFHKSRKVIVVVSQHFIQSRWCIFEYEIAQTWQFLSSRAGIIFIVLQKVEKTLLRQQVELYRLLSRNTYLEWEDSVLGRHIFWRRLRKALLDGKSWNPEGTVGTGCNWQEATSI

B1: HMGB1: Recombinant full length human HMGB1, GST fusion system, SEQ ID NO:18; recombinant rat HMGB1 used in some experiments (protein)
chain: MGKGDPKKPTGKMSSYAFFVQTCREEHKKKHPDASVNFSEFSKKCSERWKTMSAKEKGKFEDMAKADKARYEREMKTYIPPKGETKKKFKDPNAPKRLPSAFFLFCSEYRPKIKGEHPGLSIGDVAKKLGEMWNNTAADDKQPYEKKAAKLKEKYEKDIAAYRAKGKPDAAKKGVVKAEKSKKKKEEEEDEEDEEDEEEEEDEEDEEDEEEDDDDE
modifications: GST fusion
notes: recombinant rat HMGB1 used in some experiments
Turning to B1, the CD25 expression result in data set [1] was “decreased CD25 expression compared to the CHO/TLR2 samples”. For the same molecule, the “level of luciferase stimulation” value in data set [2] is listed as “decreased”. In addition, in data set [2] (not co-transfected with MyD 88 dominant negative), the luciferase activity entry is reported as “stimulated luciferase activity”. The 125I-HMGB1 binding kinetics entry with RAW 264.7 cells (RAW 264.7 cells) was “saturable first order binding kinetics”.

B2: B box: Human HMGB1 mutant containing only the B box, SEQ ID NO:20 (protein)
chain: FKDPNAPKRLPSAFFLFCSEYRPKIKGEHPGLSIGDVAKKLGEMWNNTAADDKQPYEKKAAKLKEKYEKDIAAY
Turning to B2, the CD25 expression entry in data set [1] is given as “decreased CD25 expression compared to the CHO/TLR2 samples”. Besides, the “level of luciferase stimulation” value in data set [2] is listed as “This effect was also observed”. Moreover, the lethality result with C3H/HeJ mice (C3H/HeJ mice (do not respond to endotoxin)) was “lethal”. Also, in the data set with C3H/HeJ mice (setting [3]), the histology of heart result is reported as “evidence of ischemia with loss of cross striation”; the histology of liver entry is “mild acute inflammatory responses”; the “histology of lung and kidney” value was “no abnormal morphologic changes”.

B3: A box: Human HMGB1 mutant containing only the A box, SEQ ID NO:21 (A box SEQ ID NO:22) (protein)
chain: MGKGDPKKPTGKMSSYAFFVQTCREEHKKKHPDASVNFSEFSKKCSERWKTMSAKEKGKFEDMAKADKARYEREMKTYIPPKGET
For B3, in the data set on HMGB1, the “apparent EC50 for inhibition of HMGB1 induced TNF release” value is “approximately 7.5 μg/ml”. Further, the “displacement of 125I-HMGB1 binding” value with RAW 264.7 cells (5,000 molar excess unlabeled A box, 2 hours) was “competitive antagonist of HMGB1 activity in vitro”.
